Measurements reported in patent publication US9175313B2, “Three-dimensional structure of isoprene synthase and its use thereof for generating variants” (Danisco US Inc., priority 2009, dated 2015).
Substitutions are numbered along the chain they refer to. Numbers in names are those of the source. Entries after “also recorded” stand apart in the source; their conditions may differ.

B1: L494P: P. alba IspS variant L494P; pDW101, strain DW399, SEQ ID NO: 69 (protein)
chain: MEARRSANYEPNSWDYDYLLSSDTDESIEVYKDKAKKLEAEVRREINNEKAEFLTLLELIDNVQRLGLGYRFESDIRGALDRFVSSGGFDAVTKTSLHGTALSFRLLRQHGFEVSQEAFSGFKDQNGNFLENLKEDIKAILSLYEASFLALEGENILDEAKVFAISHLKELSEEKIGKELAEQVNHALELPLHRRTQRLEAVWSIEAYRKKEDANQVLLELAILDYNMIQSVYQRDLRETSRWWRRVGLATKLHFARDRLIESFYWAVGVAFEPQYSDCRNSVAKMFSFVTIIDDIYDVYGTLDELELFTDAVERWDVNAINDLPDYMKLCFLALYNTINEIAYDNLKDKGENILPYLTKAWADLCNAFLQEAKWLYNKSTPTFDDYFGNAWKSSSGPLQLVFAYFAVVQNIKKEEIENLQKYHDTISRPSHIFRLCNDLASASAEIARGETANSVSCYMRTKGISEELATESVMNLIDETWKKMNKEKLGGSPFAKPFVETAINLARQSHCTYHNGDAHTSPDELTRKRVLSVITEPILPFERENLYFQGLEHHHHHH
B2: T536F: P. alba IspS variant T536F; pDW87, strain DW363, SEQ ID NO: 95 (protein)
chain: B1 chain with P494L, T536F

How the values were obtained:
Format in all cases: biochemical
[1] = kcat, KM and Ki determination, rate vs [DMAPP], fit to uncompetitive substrate inhibition
Procedure: 10 uL of purified enzyme was incubated with DMAPP at concentrations ranging from 1.25 to 20 mM DMAPP in a buffer containing 50 mM Tris, 50 mM MgCl2 and 50 mM NaCl (pH=8) to a final volume of 100 uL for 15 min. at 30 C in gas tight 2 mL vials. Reactions were terminated with the addition of 100 uL of 250 mM EDTA, pH=8. Samples were analyzed by GC-MS to determine the concentration of isoprene in the headspace of the vials. Data were analyzed using Kaleidagraph and fit to following equation for uncompetitive substrate inhibition: rate/E=kcat*S/(KM+S*(1+S/Ki)). All kinetic assays were performed in triplicate.
Protein concentration was determined by measuring the absorbance of each protein solution at 280 nm on a Helwlett Pachard 8453 UV-Vis spectrophotometer and converting the absorbance to protein concentration using the extinction coefficient as determined on the Expasy website (Gasteiger E., Hoogland C., Gattiker A., Duvaud S., Wilkins M. R., Appel R. D., Bairoch A.; Protein Identification and Analysis Tools on the ExPASy Server; (In) John M. Walker (ed): The Proteomics Protocols Handbook, Humana Press (2005). pp. 571-607). The protein concentrations of isoprene synthase variants assayed for KM and kcat determination were verified by comparative gel electrophoresis of a dilution series of each protein (FIG. 61).

[2] = DMAPP assay of site evaluation library (SEL) lysates with ELISA protein quantitation: specific activity ranked as performance index; details: for isoprene synthase activity of variants relative to parent, in words: SEL analysis of P. alba IspS; for performance index: primary SEL screen, activity on DMAPP per unit weight relative to the parental molecule (parent = 1)
Procedure, shortened: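 Induced E. coli cell pellets lysed in 50 mM Tris pH 8, 25 mM MgCl2, lysozyme, DNase I; 10-fold diluted supernatant reacted with DMAPP (20 mM working stock in 0.1 M phosphate pH 8.2) at 25° C for 30 min, stopped at 70° C for 12 min. Isoprene in headspace quantified by GC-MS.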

[3] = Specific activity measurement of purified isoprene synthase variants (4 mM DMAPP, 30 C, GC-MS headspace)
Procedure, shortened: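 Ni-affinity-purified, buffer-exchanged enzyme incubated with 4 mM DMAPP and 50 mM MgCl2 in 50 mM Tris, 50 mM NaCl, pH 8, for 15 min at 30 C in sealed vials; stopped with EDTA. Headspace isoprene quantified by GC-MS, in triplicate; protein concentration from A280 with calculated extinction coefficient.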

Row | Ki ([1]; uncompetitive substrate inhibition by DMAPP, average of three trials ± one standard deviation, read-out: KiDMAPP) [mM] | Molecule | KM compared to WT isoprene synthase, in words ([1]; 1.25 to 20 mM DMAPP, 30 C) | rate profile vs [DMAPP] ([1]; 1.25 to 20 mM DMAPP, 30 C) | Km ([1]; 1.25 to 20 mM DMAPP, 30 C, average of three trials ± one standard deviation) [mM] | kcat ([1]; 1.25 to 20 mM DMAPP, 30 C, average of three trials ± one standard deviation, in s^-1 (unit assumed)) | kcat compared to WT isoprene synthase, in words ([1]; 1.25 to 20 mM DMAPP, 30 C, listed as β) | isoprene synthase activity of variants relative to parent, in words [2] | performance index [2] | S.A. ([3]; 50 mM NaCl, 50 mM Tris pH = 8, 30° C.) [nmol/mg/min] | Variant S.A./WT S.A. ([3]; 50 mM NaCl, 50 mM Tris pH = 8, 30° C., ratio to WT) | specific activity compared to WT isoprene synthase, in words ([3]; 30 C, purified enzyme) | specific activity, times/fold greater than WT ([3]; 30 C, purified enzyme, listed as P) | specific activity, times/fold greater than WT ([3]; 30 C, purified enzyme, listed as β)
1 | 13 ± 1 | B1 | less than the KM of the WT | uncompetitive substrate inhibition by DMAPP | 3.6 ± 0.5 | 2.1 ± 0.1 | greater than the kcat of the WT | improved activity; also recorded: high performing | 2.64 | 950 ± 40 | 2.0 | increased specific activity | 2.0 | 2
2 | – | B2 | – | – | – | – | – | improved isoprene synthase activity; also recorded: high performing | 3.60 | – | – | – | – | –
